From paper PMC8256032, “Regulation of Dishevelled DEP domain swapping by conserved phosphorylation sites” (Proceedings of the National Academy of Sciences of the …, 2021)
Changes are numbered by the printed parent chain.

B1: Lipoyl-tagged DEP (Lip-DEP_(402–510)), wild type (domain or fragment, human, UniProt O14641 402-510, looked up)
chain: ITSGSSLPDGCEGRGLSVHTDMASVTKAMAAPESGLEVRDRMWLKITIPNAFLGSDVVDWLYHHVEGFPERREARKYASGLLKAGLIRHTVNKITFSEQCYYVFGDLSG
notes: also called Lip-DEP402 to 510; source: E. coli BL21-CodonPlus(DE3)-RIL, purified (NiNTA, SEC)
B2: cleaved wt DEP monomer (Lip tag removed) (domain or fragment, human, UniProt O14641 402-510, looked up)
chain: B1 chain
notes: also called monomeric DEP; source: E. coli BL21-CodonPlus(DE3)-RIL, purified (NiNTA, SEC), Lip tag removed by tobacco etch virus protease
B3: Lip-DEP_(402–510) S418E (domain or fragment, human, UniProt O14641 402-510, looked up)
chain: B1 chain with S17E
notes: source: E. coli BL21-CodonPlus(DE3)-RIL, purified (NiNTA, SEC)
B4: Lip-DEP_(402–510) S418A (domain or fragment, human, UniProt O14641 402-510, looked up)
chain: B1 chain with S17A
notes: as for B3
B5: Lip-DEP_(402–510) S435A (domain or fragment, human, UniProt O14641 402-510, looked up)
chain: B1 chain with S34A
notes: as for B3
B6: Lip-DEP_(402–510) S435E (domain or fragment, human, UniProt O14641 402-510, looked up)
chain: B1 chain with S34E
notes: as for B3

What was measured:
[1] = biological target: SNAP-FZD5 (UniProt Q13467); test: SNAP-FZD5-dependent recruitment of DEP-GFP to the plasma membrane (cell scoring); conditions: n = 100 cells scored in each case, read off a plot; for other: % of cells with strong recruitment (category 'strong'): parent: est. 98
[2] = biological target: the molecule itself; test: SEC-MALS; unfractionated purified Lip-DEP_(402–510), Lip tag kept; Tris-buffered saline (30 mM Tris, 300 mM NaCl, NaN3 0.03%, pH 7.4), Superdex S-200 10/300
[3] = biological target: the molecule itself; test: SEC-MALS; cleaved DEP monomer incubated with urea (0 to 5 M for wt; 3 M for the mutants) for 8 h at 25 °C, then SEC-MALS in Tris-buffered saline (30 mM Tris, 300 mM NaCl, pH 7.4); monomer to domain-swapped dimer

Sequence of SNAP-FZD5 (Q13467 27-585): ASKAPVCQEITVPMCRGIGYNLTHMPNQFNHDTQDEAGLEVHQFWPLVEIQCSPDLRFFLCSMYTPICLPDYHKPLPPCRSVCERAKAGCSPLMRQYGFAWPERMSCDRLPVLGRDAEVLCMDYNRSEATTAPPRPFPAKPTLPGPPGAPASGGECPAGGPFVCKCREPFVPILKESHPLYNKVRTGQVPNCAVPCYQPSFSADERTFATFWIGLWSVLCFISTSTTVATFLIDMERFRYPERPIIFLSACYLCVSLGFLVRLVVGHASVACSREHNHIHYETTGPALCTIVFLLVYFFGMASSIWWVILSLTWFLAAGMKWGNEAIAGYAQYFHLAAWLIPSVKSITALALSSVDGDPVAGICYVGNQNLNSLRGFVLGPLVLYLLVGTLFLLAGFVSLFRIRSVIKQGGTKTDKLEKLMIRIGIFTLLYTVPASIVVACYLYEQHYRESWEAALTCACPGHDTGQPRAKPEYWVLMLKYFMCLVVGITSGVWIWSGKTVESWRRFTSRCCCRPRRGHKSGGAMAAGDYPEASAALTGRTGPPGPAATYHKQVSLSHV

| Molecule | other: % of cells with strong recruitment (category 'strong') [1] | binding result [2] | also measured |
| --- | --- | --- | --- |
| DEP tagged with GFP (DEP-GFP), wild type (from UniProt O14641) S418E | 100 % of cells |  |  |
| DEP tagged with GFP (DEP-GFP), wild type (from UniProt O14641) L445E |  |  | other: % of cells with no recruitment (category 'none') [1]: 94 % of cells |
| DEP tagged with GFP (DEP-GFP), wild type (from UniProt O14641) S418A | 98 % of cells |  |  |
| DEP tagged with GFP (DEP-GFP), wild type (from UniProt O14641) S435A | 97 % of cells |  |  |
| DEP tagged with GFP (DEP-GFP), wild type (from UniProt O14641) S435E | 99 % of cells |  |  |
| B1 |  |  | stoichiometry N [2]: 2 |
| B2 |  |  | stoichiometry N [3]: 2 |
| B3 |  | binds |  |
| B4 |  | binds |  |
| B5 |  | binds |  |
| B6 |  | binds |  |
